Experiments:
[1] = tested on: FLAG-ATRX-HA (full-length hATRX) (Homo sapiens); experiment: pull-down qPCR; details: 2 ug protein; Pull-down: 2 mM MgCl2, 100 U/ml RNase inhibitor, 0.1 mg/ml yeast tRNA, 0.05% BSA, 0.2% NP-40, 4 °C overnight, washes 150 and 15 mM NaCl; EMSA: 50 mM Tris pH …
[2] = tested on: FLAG-ATRXΔRBR-HA (Homo sapiens); experiment: pull-down qPCR; details: 2 ug protein; Pull-down: 2 mM MgCl2, 100 U/ml RNase inhibitor, 0.1 mg/ml yeast tRNA, 0.05% BSA, 0.2% NP-40, 4 °C overnight, washes 150 and 15 mM NaCl; EMSA: 50 mM Tris pH …
[3] = tested on: GST-RBR (ATRX RNA binding region) (Homo sapiens); experiment: pull-down qPCR; details: 2 ug protein; Pull-down: 2 mM MgCl2, 100 U/ml RNase inhibitor, 0.1 mg/ml yeast tRNA, 0.05% BSA, 0.2% NP-40, 4 °C overnight, washes 150 and 15 mM NaCl; EMSA: 50 mM Tris pH …
[4] = tested on: FLAG-ATRX-HA (full-length hATRX) (Homo sapiens); experiment: pull-down RT-qPCR; details: 2 ug protein, Pull-down: 2 mM MgCl2, 100 U/ml RNase inhibitor, 0.1 mg/ml yeast tRNA, 0.05% BSA, 0.2% NP-40, 4 °C overnight, washes 150 and 15 mM NaCl, EMSA: 50 mM Tris pH …
[5] = tested on: GST-RBR (ATRX RNA binding region) (Homo sapiens); experiment: pull-down RT-qPCR; details: Pull-down: 2 mM MgCl2, 100 U/ml RNase inhibitor, 0.1 mg/ml yeast tRNA, 0.05% BSA, 0.2% NP-40, 4 °C overnight, washes 150 and 15 mM NaCl, EMSA: 50 mM Tris pH …
[6] = tested on: GST-RBR (ATRX RNA binding region) (Homo sapiens); experiment: competition pull-down RT-qPCR; details: Pull-down: 2 mM MgCl2, 100 U/ml RNase inhibitor, 0.1 mg/ml yeast tRNA, 0.05% BSA, 0.2% NP-40, 4 °C overnight
[7] = tested on: FLAG-ATRX-HA (full-length hATRX) (Homo sapiens); experiment: EMSA; details: 5 mM Mg2+, yeast tRNA competitor; citation to ref 11 stands next to the value; Pull-down: 2 mM MgCl2, 100 U/ml RNase inhibitor, 0.1 mg/ml yeast tRNA, 0.05% BSA, 0.2% NP-40, 4 °C overnight, washes 150 and 15 mM NaCl; EMSA: 50 mM Tris pH …
[8] = tested on: FLAG-ATRX helicase domain (F6); experiment: pull-down RT-qPCR; details: 25 pmol protein; binds, less than GST-RBR; Pull-down: 2 mM MgCl2, 100 U/ml RNase inhibitor, 0.1 mg/ml yeast tRNA, 0.05% BSA, 0.2% NP-40, 4 °C overnight, washes 150 and 15 mM NaCl; EMSA: 50 mM Tris pH …
[9] = tested on: FLAG-ATRXΔRBR-HA (Homo sapiens); experiment: pull-down RT-qPCR; details: 2 ug protein, yeast tRNA; Pull-down: 2 mM MgCl2, 100 U/ml RNase inhibitor, 0.1 mg/ml yeast tRNA, 0.05% BSA, 0.2% NP-40, 4 °C overnight, washes 150 and 15 mM NaCl; EMSA: 50 mM Tris pH …

Substance | binding signal [1] | binding signal [2] | binding signal [3] | binding signal ([5]; 0.5 ug protein) | binding signal ([5]; 1 ug protein) | binding signal ([5]; 2 ug protein, yeast tRNA) | binding signal ([5]; 2 ug protein) | binding signal ([5]; 3 ug protein) | also measured
MBP DNA, 300 bp | 0.197 % input | 0.185 % input | 0.000184 % input | – | – | – | – | – | –
MBP RNA, 300 nt | – | – | – | 0.142 % input | 0.189 % input | 0.974 % input | 0.183 % input | 0.22 % input | binding signal [4]: 1.28 % input; binding signal ([6]; mixed with 5 ug Repeat A RNA, washes 150 and 15 mM NaCl, EMSA: 50 mM Tris pH …): 0.0666 % input
Xist Repeat A DNA, 435 bp | 0.478 % input | 0.23 % input | 0.002 % input | – | – | – | – | – | –
Xist Repeat A RNA, 192-nt fragment | – | – | – | – | – | – | – | – | Kd [7]: 17.9 nM
Xist Repeat A RNA, 435 nt | – | – | – | 0.342 % input | 1.99 % input | 3.08 % input | 2.92 % input | 9.29 % input | binding signal ([4]; yeast tRNA): 8 % input; binding signal [8]: 0.741 % input; binding signal [9]: 3.43 % input; binding signal ([5]; 25 pmol protein): 1.8 % input; binding signal ([6]; mixed with 5 ug MBP RNA, washes 150 and 15 mM …, EMSA: 50 mM Tris pH 8.0): 3.04 % input
